{"source": "paper PMC7652391", "biological_target": "Mature human mitochondrial heat shock protein family D member 1 (HSPD1) (human), P10809", "experiment": "cryo-EM structure; single-particle cryoEM of reconstituted oligomeric HSPD1; grids by TED (6 and 50 ms), chameleon (54 ms) and Vitrobot (6 s blot); 50 mM Tris, 300 mM NaCl, 10 mM MgCl2 pH 8; consensus reconstructions in C1 and C7 symmetry", "conditions": "remark: other sources report otherwise"}
{"binder": "Mature human mitochondrial heat shock protein family D member 1 (HSPD1), P10809 27-573 (natural protein) AKDVKFGADARALMLQGVDLLADAVAVTMGPKGRTVIIEQSWGSPKVTKDGVTVAKSIDLKDKYKNIGAKLVQDVANNTNEEAGDGTTTATVLARSIAKEGFEKISKGANPVEIRRGVMLAVDAVIAELKKQSKPVTTPEEIAQVATISANGDKEIGNIISDAMKKVGRKGVITVKDGKTLNDELEIIEGMKFDRGYISPYFINTSKGQKCEFQDAYVLLSEKKISSIQSIVPALEIANAHRKPLVIIAEDVDGEALSTLVLNRLKVGLQVVAVKAPGFGDNRKNQLKDMAIATGGAVFGEEGLTLNLEDVQPHDLGKVGEVIVTKDDAMLLKGKGDKAQIEKRIQEIIEQLDVTTSEYEKEKLNERLAKLSDGVAVLKVGGTSDVEVNEKKDRVTDALNATRAAVEEGIVLGGGCALLRCIPALDSLTPANEDQKIGIEIIKRTLKIPAMTIAKNAGVEGSLIVEKIMQSSSEVGYDAMAGDFVNMVEKGIIDPTKVVRTALLDAAGVASLLTTAEVVVTEIPKEEKDPGMGAMGGMGGGMGGGMF", "values": [{"measurement": "stoichiometry N", "result": 7}]}
